Experimental data as given in article PMC9300185 (Chembiochem, 2021).

Target: the molecule itself
Test: crystal structure

B1: LecA, galactose-binding lectin of Pseudomonas aeruginosa (natural protein)
chain: AWKGEVLANNEAGQVTSIIYNPGDVITIVAAGWASYGPTQKWGPQGDREHPDQGLICHDAFCGALVMKIGNSGTIPVNTGLFRWVAPNNVQGAITLIYNDVPGTYGNNSGSFSVNIGKDQS
- stoichiometry N: 4
